Changes are numbered by the printed parent chain. Each block holds one binder with its values, some of them ahead of it.
Key:
[1] = molecular target: T1, human CD28 (human, UniProt P10747); assay: flow cytometry, Expi-CD28 cells
[2] = molecular target: T2, human TIGIT (human, UniProt Q495A1); assay: flow cytometry, Jurkat/IL-2/TIGIT cells
T2 sequence: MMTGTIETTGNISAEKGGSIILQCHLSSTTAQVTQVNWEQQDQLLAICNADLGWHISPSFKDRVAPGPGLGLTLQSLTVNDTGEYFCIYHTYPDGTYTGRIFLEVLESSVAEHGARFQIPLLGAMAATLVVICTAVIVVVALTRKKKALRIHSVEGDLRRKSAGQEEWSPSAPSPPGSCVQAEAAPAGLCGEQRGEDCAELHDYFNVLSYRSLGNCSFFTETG

[3] = molecular target: CD28 (human, UniProt P10747); assay: cell-based or functional assay
[4] = molecular target: T3, TIGIT (human, UniProt Q495A1); assay: cell-based or functional assay
T3 sequence: T2 sequence

[5] = molecular target: T4, human CD80 (human); assay: cell-based or functional assay
T4 chain: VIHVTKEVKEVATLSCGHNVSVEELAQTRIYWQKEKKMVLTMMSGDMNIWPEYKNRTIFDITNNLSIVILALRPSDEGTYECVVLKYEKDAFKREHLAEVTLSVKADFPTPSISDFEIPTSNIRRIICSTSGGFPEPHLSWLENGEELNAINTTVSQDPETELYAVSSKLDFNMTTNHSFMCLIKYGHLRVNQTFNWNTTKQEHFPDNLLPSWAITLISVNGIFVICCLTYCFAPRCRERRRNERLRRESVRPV

[6] = molecular target: PD-1 (human, UniProt Q15116); assay: cell-based or functional assay
[7] = molecular target: T5, human PD-1 (human, UniProt Q15116); assay: flow cytometry, CHO/PD-1 cells, 100 nM, anti-FLAG-PE
[8] = molecular target: T6, CD80 (human); assay: flow cytometry, CHO-CD80 cells
T6 chain: T4 chain

[9] = molecular target: T5, human PD-1; assay: flow cytometry, Jurkat/IL-2/PD-1 cells
[10] = molecular target: T5, human PD-1; assay: flow cytometry, CHO/PD-1 cells, 100 nM, anti-Flag
[11] = molecular target: human CTLA-4 (human); assay: flow cytometry, CHO/CTLA-4 cells, 100 nM, anti-Flag
Chain of human CTLA-4 (human) (chain, as listed by the source): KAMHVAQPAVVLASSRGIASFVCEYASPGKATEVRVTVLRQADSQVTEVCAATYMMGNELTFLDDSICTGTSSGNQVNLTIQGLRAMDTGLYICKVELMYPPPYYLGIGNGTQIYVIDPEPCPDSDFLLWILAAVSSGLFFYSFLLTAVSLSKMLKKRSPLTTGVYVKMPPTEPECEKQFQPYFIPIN

[12] = molecular target: T1, human CD28; assay: flow cytometry, Jurkat cells (endogenous CD28), 100 nM, anti-Flag

- EC50 [1]: 3.39 nM
- EC50 [2]: 2.3 nM
B1: CD155 665-ICOSL 2264-ICOSL 2264-CD155 665 (other)
chain: WPPPGTGDVVVQAPTQVSGFLGDSVTLPCYLQVPNMEVTHVSQLTWARHGESGSMAVFHQTQGPWYAESKRLEFVAARLGAELRNASLRVFGLRAEDEGNYTCQFVTFPQRSRSVDIWLRVLGGGGSGGGGTGGGGSDTQEKEVRAMVGSDVELSCACPEGSRFDLNDVYVYWQTSESKTVVTYHIPQHSSLEYVDSRYRNRALMSPAGMLRGDFSLRLFNVTPQDEQKFHCLVLSRSLGFQEVLSVEVTLHVAANFSVGGGGSGGGGSGGGGSDTQEKEVRAMVGSDVELSCACPEGSRFDLNDVYVYWQTSESKTVVTYHIPQHSSLEYVDSRYRNRALMSPAGMLRGDFSLRLFNVTPQDEQKFHCLVLSRSLGFQEVLSVEVTLHVAANFSVGSGGSGGGGSGGGGSWPPPGTGDVVVQAPTQVSGFLGDSVTLPCYLQVPNMEVTHVSQLTWARHGESGSMAVFHQTQGPWYAESKRLEFVAARLGAELRNASLRVFGLRAEDEGNYTCQFVTFPQRSRSVDIWLRVLGSGGGGSDYKDDDDKHHHHHH

- 100 nM IFN-gamma (pg/mL), SEB assay [3]: 2120 pg/mL
- 100 nM IFN-gamma (pg/mL), SEB assay [4]: 2120 pg/mL
B2: CD155 665-ICOSL 2264-ICOSL 2264-CD155 665 (other)
chain: B1 chain

- % CD25 Hi FoxP3 + [5]: 19.1 % at 100 nM
- % CD25 Hi FoxP3 + [6]: 19.1 % at 100 nM
B3: PD-L1 303-CTLA-4 3495-Fc (Fc fusion)
chain: FTVTVPKDLYVVEYGSNMTIECKFPVEKQLDLAALIVYWEMEGKDIIQFVHGEEDQKAQHSSYRQRARLLKDQLSLGNAALQITDVKLQDAGVYRCMISYGGGADYKRITVKVNAGSGGSGGGGSGGGGSKAMHVAQPAVVLASSRGIASFVCEYASPGKATEVRVTVLRQADSQVTEVCAATYMMGNELTFLDDSICTGTSSGNQVNLTIQGLRAMDTGLYICKVELMYPPPYYLGIGNGTQIYVIDPEPSPDSDQGGGGSGSGGGGSEPKSSDKTHTCPPCPAPEAEGAPSVFLFPPKPKDTLMISRTPEVTCVVVDVSHEDPEVKFNWYVDGVEVHNAKTKPREEQYNSTYRVVSVLTVLHQDWLNGKEYKCKVSNKALPAPIEKTISKAKGQPREPQVYTLPPSRDELTKNQVSLTCLVKGFYPSDIAVEWESNGQPENNYKTTPPVLDSDGSFFLYSKLTVDKSRWQQGNVFSCSVMHEALHNHYTQKSLSLSPG

- MFI [7]: 19900
B4: PD-L2 1417-IL16 (other)
chain: LFTVTVPKELYIIEQGSNVTLECNFDTGSHVNLGAITASLQKVENDASPHRERATLLEEQLPLGRALFHIPQVQVRDEGQYRCIIIYGDAWDYKYLTLKVKAGSGGSGGGGSGGGGSSAASASAASDVSVESTAEATVCTVTLEKMSAGLGFSLEGGKGSLHGDKPLTINRIFKGAASEQSETVQPGDEILQLGGTAMQGLTRFEAWNIIKALPDGPVTIVIRRKSLQSKETTAAGDSDYKDDDDKHHHHHH

- EC50 [8]: 3.8 nM
- EC50 [1]: 4.15 nM
- EC50 [9]: 1.3 nM
- EC50 [2]: 1.6 nM
B5: PD-L1 303-CD155 665-CTLA-4 3037-Fc (Fc fusion)
chain: FTVTVPKDLYVVEYGSNMTIECKFPVEKQLDLAALIVYWEMEGKDIIQFVHGEEDQKAQHSSYRQRARLLKDQLSLGNAALQITDVKLQDAGVYRCMISYGGGADYKRITVKVNAGGGGSGGGGSGGGGSWPPPGTGDVVVQAPTQVSGFLGDSVTLPCYLQVPNMEVTHVSQLTWARHGESGSMAVFHQTQGPWYAESKRLEFVAARLGAELRNASLRVFGLRAEDEGNYTCQFVTFPQRSRSVDIWLRVLGGGGSGGGGSGGGGSKAMHVAQPAVVFASSHGIASFVCEYASPWKATEVRVTVLRQADSQVTEVCAATYMTGNELTFLDDSICTGTSSGNQVNLTIQGLRAMDTGLYICKVEQMYPPPYLLGIGNGTQIYVIDPEPCPDSDGSGGGGSEPKSSDKTHTCPPCPAPEAEGAPSVFLFPPKPKDTLMISRTPEVTCVVVDVSHEDPEVKFNWYVDGVEVHNAKTKPREEQYNSTYRVVSVLTVLHQDWLNGKEYKCKVSNKALPAPIEKTISKAKGQPREPQVYTLPPSRDELTKNQVSLTCLVKGFYPSDIAVEWESNGQPENNYKTTPPVLDSDGSFFLYSKLTVDKSRWQQGNVFSCSVMHEALHNHYTQKSLSLSPG

- % CD25 Hi FoxP3 + [5]: 44.2 % at 100 nM
- % CD25 Hi FoxP3 + [6]: 44.2 % at 100 nM
B6: PD-L1 303-CTLA-4 3037-Fc (SEQ ID NO 3523) (Fc fusion)
chain: FTVTVPKDLYVVEYGSNMTIECKFPVEKQLDLAALIVYWEMEGKDIIQFVHGEEDQKAQHSSYRQRARLLKDQLSLGNAALQITDVKLQDAGVYRCMISYGGGADYKRITVKVNAGSGGSGGGGSGGGGSKAMHVAQPAVVLASSRGIASFVCEYASPWKATEVRVTVLRQADSQVTEVCAATYMMGSELTFPDDSICTGTSSGNQVNLTIRGLRAMDTGLYICKVEQMYPPPYLLGIGNGTQIYVIDPEPCPDSDGGGGSGSGGGGSEPKSSDKTHTCPPCPAPEAEGAPSVFLFPPKPKDTLMISRTPEVTCVVVDVSHEDPEVKFNWYVDGVEVHNAKTKPREEQYNSTYRVVSVLTVLHQDWLNGKEYKCKVSNKALPAPIEKTISKAKGQPREPQVYTLPPSRDELTKNQVSLTCLVKGFYPSDIAVEWESNGQPENNYKTTPPVLDSDGSFFLYSKLTVDKSRWQQGNVFSCSVMHEALHNHYTQKSLSLSPG

- MFI [10]: 1520
- MFI [11]: 82.5
- MFI [12]: 92.2
B7: CD80 2616-PD-L2 1417 (other)
chain: VIHVTKEVKEVATLSCGHNVSLEELAQTRIYWQKGKKMVLTMMSGDMNIWPEYKNRTIFDITNNLSIVILDPRPSDEGTYECVVLKYEKDAFKREHLAEVGSGGSGGGGSGGGGSLFTVTVPKELYIIEQGSNVTLECNFDTGSHVNLGAITASLQKVENDASPHRERATLLEEQLPLGRALFHIPQVQVRDEGQYRCIIIYGDAWDYKYLTLKVKADYKDDDDKHHHHHH

- MFI [10]: 1390
- MFI [11]: 75.5
- MFI [12]: 110
B8: CD80 2617-PD-L2 1417 (other)
chain: B7 chain with L22V, K54E

- MFI [10]: 20000
- MFI [11]: 79.3
- MFI [12]: 89.2
B9: PD-L2 1417-CD80 2616 (other)
chain: LFTVTVPKELYIIEQGSNVTLECNFDTGSHVNLGAITASLQKVENDASPHRERATLLEEQLPLGRALFHIPQVQVRDEGQYRCIIIYGDAWDYKYLTLKVKAGSGGSGGGGSGGGGSVIHVTKEVKEVATLSCGHNVSLEELAQTRIYWQKGKKMVLTMMSGDMNIWPEYKNRTIFDITNNLSIVILDPRPSDEGTYECVVLKYEKDAFKREHLAEVDYKDDDDKHHHHHH

- MFI [10]: 13700
- MFI [11]: 85
- MFI [12]: 94.2
B10: PD-L2 1417-CD80 2617 (other)
chain: B9 chain with L139V, K171E

— patent US20250163127A1 (published 2025)
